Several values for one entry are separate records, joined by “and”; a condition that tells them apart may be missing. Equal entries are not always repeated.
Tests used:
Insulin (Homo sapiens) = Insulin (Homo sapiens) (UniProt P01308); assay: radioligand binding; details: cited from earlier work
[1] = molecular target: T1, Cat insulin receptor ectodomain (CIR) (cat) (UniProt A0ABI7YJR5+A0ABI7YJR5); assay: ELONA; details: DNA backbone; 7-deaza-7-(indolyl-ethyl)-dA (dAAIn) at 27,28,32,33,35,39,48,51; 5-(phenyl-ethynyl)-dU (dUEPh) at 24,25,26,31,40,42,44,46,49,52,54; PBS (1.5 mM KH2PO4, 8.1 mM Na2HPO4, 2.7 mM KCl, 137 mM NaCl) with 5 mM MgCl2, pH 7.4; MST with 0.1% Pluronic F-127 at 25 C; FNBA at room temperature; high values mean tight binding
T1 sequence (chain, as listed by the source, chain 1 of 2): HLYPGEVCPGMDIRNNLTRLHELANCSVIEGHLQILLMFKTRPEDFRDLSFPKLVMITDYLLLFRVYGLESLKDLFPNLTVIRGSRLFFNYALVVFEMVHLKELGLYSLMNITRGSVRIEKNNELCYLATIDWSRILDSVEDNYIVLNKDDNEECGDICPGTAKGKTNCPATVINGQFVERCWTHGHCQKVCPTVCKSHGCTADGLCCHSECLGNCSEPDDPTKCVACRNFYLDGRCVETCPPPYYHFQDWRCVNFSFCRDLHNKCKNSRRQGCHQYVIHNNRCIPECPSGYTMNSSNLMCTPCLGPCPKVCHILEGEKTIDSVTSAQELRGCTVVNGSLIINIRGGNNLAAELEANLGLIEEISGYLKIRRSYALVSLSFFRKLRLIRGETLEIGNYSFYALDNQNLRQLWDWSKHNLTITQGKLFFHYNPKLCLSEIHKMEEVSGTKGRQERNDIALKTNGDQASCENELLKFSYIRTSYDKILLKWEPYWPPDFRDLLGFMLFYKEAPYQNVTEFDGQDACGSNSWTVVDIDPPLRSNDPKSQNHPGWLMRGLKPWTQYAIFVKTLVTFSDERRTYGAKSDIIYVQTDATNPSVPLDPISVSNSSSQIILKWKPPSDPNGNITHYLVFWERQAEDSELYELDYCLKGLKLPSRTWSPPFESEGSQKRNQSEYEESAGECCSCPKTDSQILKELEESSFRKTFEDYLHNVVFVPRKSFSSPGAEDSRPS
T1 sequence (chain, as listed by the source, chain 2 of 2): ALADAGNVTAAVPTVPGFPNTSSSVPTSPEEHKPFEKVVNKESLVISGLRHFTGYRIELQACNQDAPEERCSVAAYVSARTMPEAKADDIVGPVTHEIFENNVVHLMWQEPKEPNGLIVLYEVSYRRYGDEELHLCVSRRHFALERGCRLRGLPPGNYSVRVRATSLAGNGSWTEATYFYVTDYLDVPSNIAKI

[2] = molecular target: T2, Dog insulin receptor ectodomain (DIR) (dog) (UniProt A0A8I3PWD4+A0A8I3PWD4); assay: ELONA; details: DNA backbone; 7-deaza-7-(indolyl-ethyl)-dA (dAAIn) at 27,28,32,33,35,39,48,51; 5-(phenyl-ethynyl)-dU (dUEPh) at 24,25,26,31,40,42,44,46,49,52,54; PBS (1.5 mM KH2PO4, 8.1 mM Na2HPO4, 2.7 mM KCl, 137 mM NaCl) with 5 mM MgCl2, pH 7.4; MST with 0.1% Pluronic F-127 at 25 C; FNBA at room temperature; high values mean tight binding
T2 sequence (chain, as listed by the source, chain 1 of 2): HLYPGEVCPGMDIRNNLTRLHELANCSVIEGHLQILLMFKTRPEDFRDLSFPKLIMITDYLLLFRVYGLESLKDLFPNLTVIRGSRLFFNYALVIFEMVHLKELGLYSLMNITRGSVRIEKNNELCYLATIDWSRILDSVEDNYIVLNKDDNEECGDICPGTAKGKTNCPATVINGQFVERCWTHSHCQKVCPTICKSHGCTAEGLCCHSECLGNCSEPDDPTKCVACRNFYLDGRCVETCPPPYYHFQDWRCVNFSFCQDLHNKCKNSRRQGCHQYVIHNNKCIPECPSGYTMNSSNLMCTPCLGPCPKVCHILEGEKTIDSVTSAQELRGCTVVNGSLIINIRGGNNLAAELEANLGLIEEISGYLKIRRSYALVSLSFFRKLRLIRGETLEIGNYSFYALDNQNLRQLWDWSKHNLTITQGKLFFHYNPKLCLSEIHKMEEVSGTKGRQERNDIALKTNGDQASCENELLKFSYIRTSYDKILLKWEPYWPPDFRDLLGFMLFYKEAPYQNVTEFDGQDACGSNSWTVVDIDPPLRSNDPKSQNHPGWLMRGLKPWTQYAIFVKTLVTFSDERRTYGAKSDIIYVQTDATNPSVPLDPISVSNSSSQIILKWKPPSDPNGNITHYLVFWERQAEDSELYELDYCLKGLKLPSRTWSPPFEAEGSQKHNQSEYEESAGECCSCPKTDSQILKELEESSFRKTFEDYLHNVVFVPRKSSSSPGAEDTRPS
T2 sequence (chain, as listed by the source, chain 2 of 2): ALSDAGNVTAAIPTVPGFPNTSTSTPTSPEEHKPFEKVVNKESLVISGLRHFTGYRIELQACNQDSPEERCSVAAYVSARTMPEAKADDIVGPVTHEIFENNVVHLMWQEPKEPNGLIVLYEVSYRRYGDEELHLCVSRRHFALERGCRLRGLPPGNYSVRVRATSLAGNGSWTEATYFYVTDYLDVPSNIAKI

[3] = system: Human insulin receptor ectodomain (HIR) (Homo sapiens), P06213-2+P06213-2; assay: ELONA; details: DNA backbone, PBS (1.5 mM KH2PO4, 8.1 mM Na2HPO4, 2.7 mM KCl, 137 mM NaCl) with 5 mM MgCl2, pH 7.4, MST with 0.1% Pluronic F-127 at 25 C, FNBA at room temperature, high values mean tight binding
Sequence of Human insulin receptor ectodomain (HIR) (Homo sapiens), P06213-2+P06213-2 (P06213 other isoform, or with tags, fused parts or gaps, chain 1 of 2): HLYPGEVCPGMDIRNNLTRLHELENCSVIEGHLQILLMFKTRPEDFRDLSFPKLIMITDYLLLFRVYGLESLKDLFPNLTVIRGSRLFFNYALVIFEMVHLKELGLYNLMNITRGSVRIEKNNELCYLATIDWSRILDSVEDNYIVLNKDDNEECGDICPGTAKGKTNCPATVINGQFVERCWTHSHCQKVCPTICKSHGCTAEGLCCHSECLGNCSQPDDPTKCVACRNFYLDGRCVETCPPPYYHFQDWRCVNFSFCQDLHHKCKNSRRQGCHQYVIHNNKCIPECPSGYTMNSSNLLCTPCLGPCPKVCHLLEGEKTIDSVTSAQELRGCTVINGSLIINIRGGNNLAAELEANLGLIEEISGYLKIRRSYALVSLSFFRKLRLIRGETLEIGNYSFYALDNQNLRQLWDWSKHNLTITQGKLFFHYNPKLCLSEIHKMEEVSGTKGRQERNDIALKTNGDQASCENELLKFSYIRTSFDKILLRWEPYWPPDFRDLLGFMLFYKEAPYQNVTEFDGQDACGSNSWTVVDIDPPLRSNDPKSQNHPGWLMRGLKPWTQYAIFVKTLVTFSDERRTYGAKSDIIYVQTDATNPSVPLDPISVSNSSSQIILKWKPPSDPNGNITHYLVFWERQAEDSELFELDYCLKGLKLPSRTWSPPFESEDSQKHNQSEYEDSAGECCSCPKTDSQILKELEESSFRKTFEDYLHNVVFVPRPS
Sequence of Human insulin receptor ectodomain (HIR) (Homo sapiens), P06213-2+P06213-2 (P06213 763-956, chain 2 of 2): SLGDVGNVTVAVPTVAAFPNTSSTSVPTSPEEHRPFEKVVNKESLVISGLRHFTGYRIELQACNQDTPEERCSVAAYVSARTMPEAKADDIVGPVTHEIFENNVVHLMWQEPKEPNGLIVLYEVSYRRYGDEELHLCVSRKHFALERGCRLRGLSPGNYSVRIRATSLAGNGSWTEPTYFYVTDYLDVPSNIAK

[4] = molecular target: T1, Cat insulin receptor ectodomain (CIR) (cat); assay: MST; details: DNA backbone; 7-deaza-7-(indolyl-ethyl)-dA (dAAIn) at 27,28,32,33,35,39,48,51; 5-(phenyl-ethynyl)-dU (dUEPh) at 24,25,26,31,40,42,44,46,49,52,54; PBS (1.5 mM KH2PO4, 8.1 mM Na2HPO4, 2.7 mM KCl, 137 mM NaCl) with 5 mM MgCl2, pH 7.4; MST with 0.1% Pluronic F-127 at 25 C; FNBA at room temperature; high values mean tight binding
[5] = molecular target: T2, Dog insulin receptor ectodomain (DIR) (dog); assay: MST; details: DNA backbone; 7-deaza-7-(indolyl-ethyl)-dA (dAAIn) at 27,28,32,33,35,39,48,51; 5-(phenyl-ethynyl)-dU (dUEPh) at 24,25,26,31,40,42,44,46,49,52,54; PBS (1.5 mM KH2PO4, 8.1 mM Na2HPO4, 2.7 mM KCl, 137 mM NaCl) with 5 mM MgCl2, pH 7.4; MST with 0.1% Pluronic F-127 at 25 C; FNBA at room temperature; high values mean tight binding
[6] = system: Human insulin receptor ectodomain (HIR) (Homo sapiens), P06213-2; assay: MST; details: IB: PBS (1.5 mM KH2PO4, 8.1 mM Na2HPO4, 2.7 mM KCl, 137 mM NaCl) + 5 mM MgCl2, pH 7.4, MST +0.1% Pluronic F-127, 25 C, SPR 25 C, FNBA and BLI r.t.
Sequence of Human insulin receptor ectodomain (HIR) (Homo sapiens), P06213-2 (P06213 other isoform, or with tags, fused parts or gaps): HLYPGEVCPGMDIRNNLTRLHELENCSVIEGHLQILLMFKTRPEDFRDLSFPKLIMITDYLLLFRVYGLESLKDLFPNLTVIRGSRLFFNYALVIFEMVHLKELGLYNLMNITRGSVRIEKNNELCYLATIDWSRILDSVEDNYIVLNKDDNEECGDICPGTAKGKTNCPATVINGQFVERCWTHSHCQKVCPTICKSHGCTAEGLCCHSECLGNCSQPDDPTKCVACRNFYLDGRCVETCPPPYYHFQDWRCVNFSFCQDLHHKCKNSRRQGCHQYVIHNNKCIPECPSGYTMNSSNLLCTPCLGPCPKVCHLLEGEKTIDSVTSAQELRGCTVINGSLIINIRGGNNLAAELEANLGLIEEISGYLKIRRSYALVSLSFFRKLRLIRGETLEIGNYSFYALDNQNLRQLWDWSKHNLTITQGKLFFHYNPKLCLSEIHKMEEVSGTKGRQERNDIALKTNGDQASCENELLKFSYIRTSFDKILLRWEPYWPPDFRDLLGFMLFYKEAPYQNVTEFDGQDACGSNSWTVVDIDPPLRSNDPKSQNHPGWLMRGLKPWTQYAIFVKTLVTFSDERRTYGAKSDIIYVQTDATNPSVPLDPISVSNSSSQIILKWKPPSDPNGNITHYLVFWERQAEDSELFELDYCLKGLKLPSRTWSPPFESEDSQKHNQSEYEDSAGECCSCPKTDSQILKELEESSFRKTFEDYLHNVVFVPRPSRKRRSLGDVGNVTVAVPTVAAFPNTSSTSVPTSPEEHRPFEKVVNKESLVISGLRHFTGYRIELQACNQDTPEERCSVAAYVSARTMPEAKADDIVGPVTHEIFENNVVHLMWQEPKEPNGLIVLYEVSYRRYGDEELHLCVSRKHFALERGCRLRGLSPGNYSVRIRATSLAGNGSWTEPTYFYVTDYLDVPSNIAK

[7] = system: Human insulin receptor ectodomain (HIR) (Homo sapiens), P06213-2+P06213-2; assay: MST; details: DNA backbone, PBS (1.5 mM KH2PO4, 8.1 mM Na2HPO4, 2.7 mM KCl, 137 mM NaCl) with 5 mM MgCl2, pH 7.4, MST with 0.1% Pluronic F-127 at 25 C, FNBA at room temperature, high values mean tight binding
[8] = molecular target: Human IGF-1R ectodomain (Homo sapiens) (UniProt P08069+P08069); assay: MST; details: DNA backbone; 7-deaza-7-(indolyl-ethyl)-dA (dAAIn) at 27,28,32,33,35,39,48,51; 5-(phenyl-ethynyl)-dU (dUEPh) at 24,25,26,31,40,42,44,46,49,52,54; PBS (1.5 mM KH2PO4, 8.1 mM Na2HPO4, 2.7 mM KCl, 137 mM NaCl) with 5 mM MgCl2, pH 7.4; MST with 0.1% Pluronic F-127 at 25 C; FNBA at room temperature; high values mean tight binding
[9] = system: Human insulin receptor ectodomain (HIR) (Homo sapiens), P06213-2; assay: BLI; details: after primer nt 1-20 every U = rigidly linked phenyl-dU and every A = flexibly linked indole-dA (nucleotides 1,2); DNA backbone; IB: PBS (1.5 mM KH2PO4, 8.1 mM Na2HPO4, 2.7 mM KCl, 137 mM NaCl) + 5 mM MgCl2, pH 7.4; MST +0.1% Pluronic F-127, 25 C; SPR 25 C; FNBA and BLI r.t.
[10] = system: Human insulin receptor ectodomain (HIR) (Homo sapiens), P06213-2; assay: SPR; details: after primer nt 1-20 every U = rigidly linked phenyl-dU and every A = flexibly linked indole-dA (nucleotides 1,2); DNA backbone; IB: PBS (1.5 mM KH2PO4, 8.1 mM Na2HPO4, 2.7 mM KCl, 137 mM NaCl) + 5 mM MgCl2, pH 7.4; MST +0.1% Pluronic F-127, 25 C; SPR 25 C; FNBA and BLI r.t.
[11] = system: Human insulin receptor isoform A, native (IM-9 cells) (Homo sapiens), P06213-2+P06213-2; assay: competition with 125I-insulin; details: after primer nt 1-20 every U = rigidly linked phenyl-dU and every A = flexibly linked indole-dA (nucleotides 1,2); DNA backbone; IB: PBS (1.5 mM KH2PO4, 8.1 mM Na2HPO4, 2.7 mM KCl, 137 mM NaCl) + 5 mM MgCl2, pH 7.4; MST +0.1% Pluronic F-127, 25 C; SPR 25 C; FNBA and BLI r.t.
Sequence of Human insulin receptor isoform A, native (IM-9 cells) (Homo sapiens), P06213-2+P06213-2 (P06213 other isoform, or with tags, fused parts or gaps, chain 1 of 2): as the sequence (P06213 other isoform, or with tags, fused parts or gaps, chain 1 of 2) above
Sequence of Human insulin receptor isoform A, native (IM-9 cells) (Homo sapiens), P06213-2+P06213-2 (P06213 763-1382, chain 2 of 2): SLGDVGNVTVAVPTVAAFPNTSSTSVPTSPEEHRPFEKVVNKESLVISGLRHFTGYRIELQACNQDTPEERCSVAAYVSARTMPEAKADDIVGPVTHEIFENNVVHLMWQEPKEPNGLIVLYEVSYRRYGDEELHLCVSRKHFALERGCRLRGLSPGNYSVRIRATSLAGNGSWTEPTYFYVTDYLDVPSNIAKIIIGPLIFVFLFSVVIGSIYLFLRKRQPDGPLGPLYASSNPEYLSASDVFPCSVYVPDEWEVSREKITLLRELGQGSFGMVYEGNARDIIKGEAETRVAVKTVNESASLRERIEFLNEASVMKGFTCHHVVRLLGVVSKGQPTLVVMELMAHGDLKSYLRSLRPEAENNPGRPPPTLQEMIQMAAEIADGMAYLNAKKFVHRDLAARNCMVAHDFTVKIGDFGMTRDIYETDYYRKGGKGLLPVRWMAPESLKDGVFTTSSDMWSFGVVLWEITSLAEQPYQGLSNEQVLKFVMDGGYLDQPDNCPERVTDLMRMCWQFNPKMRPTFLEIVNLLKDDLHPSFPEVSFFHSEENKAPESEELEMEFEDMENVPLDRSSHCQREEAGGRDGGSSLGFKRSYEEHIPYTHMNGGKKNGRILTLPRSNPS

[12] = molecular target: Dog insulin receptor ectodomain (DIR) (dog) (UniProt A0A8I3PWD4); assay: MST; details: phenyl-dU (rigid) and indole-dA (flexible) after nt 20; IB: PBS (1.5 mM KH2PO4, 8.1 mM Na2HPO4, 2.7 mM KCl, 137 mM NaCl) + 5 mM MgCl2, pH 7.4; MST +0.1% Pluronic F-127, 25 C; SPR 25 C; FNBA and BLI r.t.
[13] = 7-deaza-7-(indolyl-ethyl)-dA (dAAIn) at 27,28,32,33,35,39,48,51, 5-(phenyl-ethynyl)-dU (dUEPh) at 24,25,26,31,40,42,44,46,49,52,54
[14] = 7-deaza-7-(indolyl-ethyl)-dA (dAAIn) at 27,28,32,33,35,39,48,51, 5-(phenyl-ethyl)-dU (dUAPh) at 24,25,26,31,40,42,44,46,49,52,54
[15] = 7-deaza-7-(indolyl-ethynyl)-dA (dAEIn) at 27,28,32,33,35,39,48,51, 5-(phenyl-ethyl)-dU (dUAPh) at 24,25,26,31,40,42,44,46,49,52,54
[16] = 7-deaza-7-(indolyl-ethyl)-dA (dAAIn) at 27,35,36,38,41,44,48,54, 5-(phenyl-ethynyl)-dU (dUEPh) at 21,22,23,32,33,37,40,45,46,50,53
[17] = 7-deaza-7-(indolyl-ethynyl)-dA (dAEIn) at 27,28,32,33,35,39,48,51, 5-(phenyl-ethynyl)-dU (dUEPh) at 24,25,26,31,40,42,44,46,49,52,54
[18] = 7-deaza-7-(phenyl-ethyl)-dA (dAAPh) at 27,28,32,33,35,39,48,51, 5-(phenyl-ethynyl)-dU (dUEPh) at 24,25,26,31,40,42,44,46,49,52,54

Sequence of Insulin (Homo sapiens) (P01308 90-110): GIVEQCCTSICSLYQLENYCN
Sequence of Insulin receptor (P06213 763-1382): as the sequence (P06213 763-1382, chain 2 of 2) above

Substance: Insulin receptor (from UniProt P06213)
- Kd (Insulin (Homo sapiens)): 0.3 nM

Substance: CATGACGCTCACTGTATCTCGCGUUUAACGUAACAGCGAUGUCUCUCAUGAUGUC [HIR-6]
- binding signal (a.u. fluorescence) [1]: 164
- binding signal (a.u. fluorescence) [2]: 272
- binding signal (a.u. fluorescence) [3, 13]: 45800 and 39500 and 44800
- binding (delta Fnorm (per mille)) [4]: -0.745
- binding (delta Fnorm (per mille)) [5]: -1.86
- Kd ([6]; after primer nt 1-20 every U = rigidly linked phenyl-dU and every A = flexibly linked indole-dA (nucleotides 1,2), DNA backbone): 2.25 nM
- binding (delta Fnorm (per mille)) [7, 13]: 38.1
- binding (delta Fnorm (per mille)) [8]: 3.56
- Kd [9]: 0.137 nM
- Kd [10]: 0.306 nM
- Ki [11]: 68.8 nM

Substance: CAACTTCTACCGGTCCATGTUUGUGAUGCCGACAGCUAGCAGCAAGUAAACGGUC [DIR-5]
- Kd [12]: 19.2 nM

Substance: CATGACGCTCACTGTATCTCGCGUUUAACGUAACAGCGAUGUCUCUCAUGAUGUC [HIR-6_V3]
- binding signal (a.u. fluorescence) [3, 14]: 196
- binding (delta Fnorm (per mille)) [7, 14]: -3.35

Substance: CATGACGCTCACTGTATCTCGCGUUUAACGUAACAGCGAUGUCUCUCAUGAUGUC [HIR-6_V1]
- binding signal (a.u. fluorescence) [3, 15]: 742
- binding (delta Fnorm (per mille)) [7, 15]: -0.274

Substance: ACTGCACCTGGCCTTTAACTUUUCGCACGCGUUGAAUACUACCAUUGAGUCGUAG [HIR_SC]
- binding signal (a.u. fluorescence) [3, 16]: 266
- binding (delta Fnorm (per mille)) [7, 16]: -1.14

Substance: CATGACGCTCACTGTATCTCGCGTTTAACGUAACAGCGAUGUCUCUCAUGAUGUC [HIR-6_M1]
- binding signal (a.u. fluorescence) ([3]; 7-deaza-7-(indolyl-ethyl)-dA (dAAIn) at 32,33,35,39,48,51, 5-(phenyl-ethynyl)-dU (dUEPh) at 31,40,42,44,46,49,52,54): 205

Substance: CATGACGCTCACTGTATCTCGCCUUUAACGUAAGAGCGAUGUCUCUCAUGAUGUC [HIR-8]
- binding signal (a.u. fluorescence) [3, 13]: 34500
- Kd ([6]; as HIR-6: phenyl-dU (rigid) and indole-dA (flexible) after nt 20): 11.7 nM
- binding (delta Fnorm (per mille)) [7, 13]: 24.8
- binding (delta Fnorm (per mille)) [8]: -0.562

Substance: CATGACGCTCACTGTATCTCGCGUUUAACGUAACAGCGAUGUCUCUCAUGAUGUC [HIR-6_V2]
- binding signal (a.u. fluorescence) [3, 17]: 644
- binding (delta Fnorm (per mille)) [7, 17]: 1.86

Substance: CATGACGCTCACTGTATCTCGCGUUUAACGUAACAGCGAUGUCUCUCAUGAUGUC [HIR-6_V4]
- binding signal (a.u. fluorescence) [3, 18]: 195
- binding (delta Fnorm (per mille)) [7, 18]: -1.7

Reference: PMC13389011
